This note sets out measurements from patent US20040161826A1, “Thermostable enzymes having aminotransferase activity, nucleic acids encoding them and methods of making and using them” (priority 1999, published 2004).

In data set [1] the target is aromatic amino acid aminotransferase (Pyrococcus horikoshii, UniProt O59096). Put plainly: Amino group transfer reaction with phenylalanine as donor, phenylpyruvic acid traced at 280 nm. The class given is biochemical, Pyrococcus horikoshi. The settings on record: receptor 2-ketoglutaric acid, pH 8.0, 25° C. The procedure: Then, kinetic parameters of each substrate were compared. […] Next, a change in the amount of NADH was traced with a change in absorbance at 340 nm, and then kinetic parameters, Kcat and Km values were measured.
When hydrophobic substrate (phenylalanine) was used as an amino group donor, the amount of reaction product (phenylpyruvic acid) was traced with a change in absorbance at 280 nm, and then Kcat and Km values were measured.

Substrate in data set [2]: N[C@@H](CC(=O)O)C(=O)O
Put plainly: purified protein, by the assay type. The settings on record: other: amino group donor aspartic acid, receptor 2-ketoglutaric acid, pH 8.0, 25° C.

Data set [3] is described as follows: Isoelectric focusing. The class given is physicochemical, Pyrococcus horikoshi.
Data set [4] is described as follows: pH stability by circular dichrograph (CD). The class given is physicochemical, Pyrococcus horikoshi. The settings on record: 25° C. As for the experimental part:
pH stability was analyzed using a circular dichrograph (CD, type J-720W, JASCO Corporation). The pH of an enzyme solution (0.1 mg/ml) was varied from 1.0 to 13.0, a change in intensity of negative ellipicity[q] at 25° C. was measured, so that pH stability was found.

A short description of data set [5]: Optimum temperature and optimum pH from Kapp, DTNB reduction traced at 412 nm. The class given is biochemical, Pyrococcus horikoshi. The settings on record: substrates L-cysteic acid and 2-ketoglutaric acid. As for the experimental part:
The presence of aminotransferase activity can be determined by any means.
Optimum temperature and optimum pH were measured as described below using L-cysteic acid and 2-ketoglutaric acid as substrates. Optimum temperature was determined according to the temperature dependence of the Kapp value which was determined by varying the reaction temperature from 30° C. to 98° C. in 50 mM phosphate buffer (pH6.5), tracing an increase in absorbance at 412 nm resulting from reduction of 5,5′-Dithiobis ([…]) (DTNB), finding Kapp value from the initial velocity.
Optimum pH was determined according to pH dependence of the Kapp value which was determined under the measurement conditions as described above by maintaining the reaction temperature at 90° C., and varying the pH of an enzyme reaction solution from 3.4 to 7.5, finding Kapp.

A short description of data set [6]: Thermal stability: residual activity after heating. The class given is physicochemical, Pyrococcus horikoshi. The settings on record: pH 6.5, 95° C. for 6 hours, 0.1 mg/ml in 20 mM phosphate buffer. As for the experimental part: Thermal stability was analyzed by measurement of residual activity after heating and with a differential scanning calorimeter (DSC). To measure residual activity after heating, this enzyme (0.1 mg/ml) was heated for a certain period of time at 95° C. and at 110° C. in 20 mM phosphate buffer (pH6.5) and quenched. Then, residual activity was measured.

Data set [7] is described as follows: Thermal stability: differential scanning calorimeter (DSC). The class given is physicochemical, Pyrococcus horikoshi. The procedure: Thermal stability was analyzed by measurement of residual activity after heating and with a differential scanning calorimeter (DSC).
In measurement with DSC, a DSC (type CSC5100™, Calolimetry Science) was used. Cell temperature was increased from 0 to 125° C. (1 K/min), and then a change in thermal capacity of the enzyme protein in 20 mM phosphate buffer (pH6.5) was measured. Enzyme concentration employed was 1 mg/ml.

On to `N[C@@H](Cc1ccccc1)C(=O)O` [phenylalanine], for which, in data set [1], the Kcat came out at 12 s⁻¹.

B1: aromatic amino acid aminotransferase (Pyrococcus horikoshii OT3) (protein)
chain: MALSDRLELVSASEIRKLFDIAAGMKDVISLGIGEPDFDTPQHIKEYAKEALDKGLTHYGPNIGLLELREAIAEKLKKQNGIEADPKTEIMVLLGANQAFLMGLSAFLKDGEEVLIPTPAFVSYAPAVILAGGKPVEVPTYEEDEFRLNVDELKKYVTDKTRALIINSPCNPTGAVLTKKDLEEIADFVVEHDLIVISDEVYEHFIYDDARHYSIASLDGMFERTITVNGFSKTFAMTGWRLGFVAAPSWIIERMVKFQMYNATCPVTFIQYAAAKALKDERSWKAVEEMRKEYDRRRKLVWKRLNEMGLPTVKPKGAFYIFPRIRDTGLTSKKFSELMLKEARVAVVPGSAFGKAGEGYVRISYATAYEKLEEAMDRMERVLKERKLV
With B1, in data set [2], the kcat came out at 0.18 s⁻¹ and the kcat/Km is 1.7 s⁻¹ M⁻¹.

B2: this enzyme: thermostable aminotransferase of Pyrococcus horikoshi JCM9974, 388 residues, homodimeric, expressed recombinantly in E. coli (protein, listed as Pyrococcus horikoshi)
chain: MALSDRLELVSASEIRKLFDIAAGMKDVISLGIGEPDFDTPQHIKEYAKEALDKGLTHYGPNIGLLELREAIAEKLKKQNGIEADPKTEIMVLLGANQAFLMGLSAFLKDGEEVLIPTPAFVSYAPAVILAGGKPVEVPTYEEDEFRLNVDELKKYVTDKTRALIINSPCNPTGAVLTKKDLEEIADFVVEHDLIVISDEVYEHFIYDDARHYSIASLDGMFERTITVNGFSKTFAMTGWRLGFVAAPSWIIERMVKFQMYNATCPVTFIQYAAAKALKDERSWKAVEEMRKEYDRRRKLVWKRLNEMGLPTVKPKGAFYIFPRIRDTGLTSKKFSELMLKEARVAVVPGSAFGKAGEGYVRISYATAYEKLEEAMDRMERVLKERKLV
In data set [3], B2 yielded an isoelectric point of 5.2. Further, in data set [4] (for 24 hours or more, 0.1 mg/ml), the “pH range over which the enzyme remains stable” value is on record as 4 to 11. This molecule also returned an a-helix content in data set [4] (pH 6.5) of 40%. The molecule also gave an optimum temperature in data set [5] (50 mM phosphate buffer pH 6.5, 30° C. to 98° C.) of 90 °C. In addition, in data set [5] (90° C., pH 3.4 to 7.5), the “optimum pH” value was determined as 6.0. In data set [5] (pH 6.5, 90° C.), this molecule registered a Kapp value of 139 s⁻¹. Further, the “residual activity after heating” value in data set [6] is on record as “remained stable, or was not deactivated”. The denaturation result in data set [7] (DSC, pH 6.5) is given as “irreversible”. In data set [7] (at the melting temperature, pH 6.5), the enthalpy change came to 2400 kJ/mol. The “melting temperature (Tm value)” value in data set [7] (pH 6.5, 20 mM phosphate buffer, 1 mg/ml, 1 K/min) came to 120.1 °C.
